In US11110171B2, “PD-1 related cancer therapy” (New York University, priority 2017, dated 2021):

Biological target: T1, SHP2PTP (the catalytic domain of SHP2) (Homo sapiens, UniProt Q06124)
T1 construct: purchased Abcam 42578 (SHP2 catalytic domain); 101112 (SAP)
T1 sequence (Q06124 247-517 limits assumed): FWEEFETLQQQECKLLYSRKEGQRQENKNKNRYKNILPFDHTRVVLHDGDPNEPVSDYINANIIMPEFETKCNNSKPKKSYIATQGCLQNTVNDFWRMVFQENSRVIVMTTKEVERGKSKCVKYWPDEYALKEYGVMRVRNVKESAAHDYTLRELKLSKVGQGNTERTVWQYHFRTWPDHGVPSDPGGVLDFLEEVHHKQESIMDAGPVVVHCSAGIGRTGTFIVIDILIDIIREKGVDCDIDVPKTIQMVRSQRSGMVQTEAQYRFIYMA
Test: Co-affinity enrichment of His-tagged SAP and GST-tagged SHP2PTP
Format: binding
Conditions: recombinant proteins in the absence of T cell lysate
Protocol: FIG. 3. SAP is indirectly associated with PD-1. (ai) Pervanadate treated Jurkat T cells were transiently transfected with GFP-tagged PD-1 or GFP alone; Whole cell lysates (WCL) were immunoprecipitated with an anti-GFP antibody (IP: GFP), and samples were analyzed by immunoblotting. (aii) Densitometry values of data shown in ai. (b) Jurkat T cells were transfected with plasmids directing expression of the indicated fluorescent proteins and after 24 hours cells were stimulated with anti-CD3 antibodies and recombinant PDL2, followed by live-imaging. Bar, 10 μm. […] (di) Jurkat T cells were transfected with different versions of GFP-tagged PD-1, as indicated, followed by treatment with pervanadate; Whole-cell lysates (Input) were immunoprecipitated with an anti-GFP antibody (IP: GFP), and samples were analyzed by immunoblotting. […] (ei) 293T cells were transfected with plasmid directing expression of GFP-SAP or a control GFP plasmid, followed by treatment with pervanadate; Lysates were pulled-down with the GST-tagged PD-1 and samples were analyzed by immunoblotting. […] (gi) SHP2 KD and scrambled control Jurkat T cells were transfected with GFP-tagged PD-1, followed by treatment with pervanadate; Lysates were immunoprecipitated with an anti-GFP antibody (IP: GFP), and samples were analyzed by immunoblotting. […] Samples were analyzed by immunoblot. […]

direct interaction of SAP with SHP2 catalytic domain: lack of direct interaction
B1: SAP: Recombinant human SAP (His tagged), signaling lymphocytic activation molecule-associated protein, purchased from Abcam (protein, UniProt O60880 1-128, looked up)
SH2 domain-containing protein …: MDAVAVYHGKISRETGEKLLLATGLDGSYLLRDSESVPGVYCLCVLYHGYIYTYRVSQTETGSWSAETAPGVHKRYFRKIKNLISAFQKPDQGIVIPLQYPVEKKSSARSTQGTTGIREDPDVCLKAP
modifications: His tag
